{"source": "patent US20120207760A1", "molecular_target": "M2 protein of influenza A/Hong Kong/483/97 (H5N1) (Influenza A virus A/Hong Kong/483/97)", "note": "Several values for one entry are separate records, joined by “and”; a condition that tells them apart may be missing. Equal entries are not always repeated.", "data": [{"substance": "TCN-032 (8I10) (antibody)", "values": [{"measurement": "FACS M2-HK MFI", "result": "754 MFI and 1080 MFI"}]}]}
